Data as given in the nanobody polyreactivity screen of Harvey et al. (2022).

Test: yeast display, Sf9 membrane polyspecificity reagent, FACS + sequencing; frameworks hold sequencing errors
Outline: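 In a synthetic yeast display library (Saccharomyces cerevisiae BJ5465), nanobody expression was induced with galactose for 36–48 hours. FACS gates were set low and high (top ~1%) using anti-HA fluorescence for expression and streptavidin fluorescence for binding of the Sf9 membrane reagent. Each polyreactivity label is drawn from the gate of origin.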

Row | Sequence | polyreactivity (PSR sort gate)
1 | QVQLVESGGGLVQAGGSLRLSCDASGRTFVRYAMGWYRQAPGKERELVARITSRGTSTYYADSVKGRFTISRDNAKNTVYLQMNSLKPEDTAVYYCNKVRTFRDKSRYDYWGQGTQVTVSS | low polyreactivity
2 | QVQLVESAGGVVQAGGSLRLSCAPSGRTFYPYVMGCYRTAPGKERELVARIRWSGSSTYYADSEKGRFTISRDNAKNTVYLQMNSLKPEDTAVYYCNARPSWYVFGSSVHSGMGYWGQGTQVTVSS | high polyreactivity
3 | QVQLVESGGGLVQAGGSLRLSCAASGSIFVNNAMGWYRQAPGKERELVAAISSRGGSTYYADSVKGRFTISRDNAKNTVYLQMNSLKPEDTAVYYCAAEYDGPYYSFYPEQRYYWGQGTQVTVSS | low polyreactivity
4 | QVQLVESGGGLVQEGGSLRLSCAASASTLYKYAMGWYRQAPGKERELVAAISWSGSSTYYADSVKGRFTISRDNAKNTVYLQMNSLKPEDTAVYYCNARWQEPLKYDYWGQGTQVTVSS | low polyreactivity
5 | QVQLVESGGGLVQAGGSLRLSCAASGYIFRFNAMGWYRQAPGKERELVAVITKSGGSTYYADSVKGRFTISRDNAKNTVYLQMNSLKPEDTAVYDCNADRFYIDYTNTYDSIRDYWGQGTQVTVSS | low polyreactivity
6 | QVQLVESGGGLVQAGGSLRLSCAASGSIFTRYVMGWYRQAPGKERELVAAISGRGSSTYYADSVKGRFTISRDNAKNTVYLQMNSLKPEDTAVYYCAADRVRRPSPGGMDYWGQGTQVTVSS | high polyreactivity
7 | QVQLVESGGGLVQAGGSLRLSCAASGITIRRYAMGWYRQAPGKERELVAAISTSGGGTYYADSVKGRFTISRDNAKYTVYLQMNSLKPEDTAVYYCAARYLGYLLSGYPPYDYWGQGTQVTVSS | high polyreactivity
8 | QVQQQESGGGLVQAGGSLRLSCAASGNIFRFTRMGWYRQGPGQVREFVAGIGDGSTTYYADSVKGRFTISRDNAKNTVHLQMNSQKPEDTAVYSCAVGDSGFVHHPYWGQGTQVTVSS | high polyreactivity
9 | QVQLVESGGGLVQAGGSLRLSCAASGFIFAWYAMGWYRQAPGKERELVASISVSDGSTYYADSVKGRFTISRDNAKNTVYLQMNSLKPEDTAVYYCAADRFYDQAYDYWGQGTQVTVSS | low polyreactivity
10 | QVQLVESGGGLVQAGGSLRLSCAASGSIFTPYAMGWYRQAPGKERELVAAISRSGGSTFYADSVKGRFTISRDNAKNSFYLQMNSLKPEDTAVYYFAVVASRSHTETPEYDYWGQGTQVTVSS | low polyreactivity
11 | QVQLVESGGGLLQAGGSLRLSCAASGSIFRLNAMGWYRQAPGKERELVATINYSGDSTYYADSVKGRFTISRDNAKNTVYLQMNSLKPEDTAVYFCATDYGWYDYWGQGTQVTVSS | low polyreactivity
12 | QVQLVESGGGLVQAGGSLRLSCAASGSIFRDYAMGWYRQAPGKERELVAAITWSGGRTYYADSVKGRFTISRDNAKNTVYLQMNSLKPEDTAVYYCAARSTRQYEYDYWGQGTQVTVSS | low polyreactivity
13 | QVQHVESGGGLVQAGGSLRLSCAASGRIFDSYAMGWYRQAPGKERELVATISWDSASTYYADTVKGRFTISRDNAKNTVYLQMNCLNPEDTAVYYCAAGGSSSWAFNYWGQGTQVTVSS | low polyreactivity
14 | QVQLVESGGGLVQAGGSLRLSCAASGFLFGWNAMGGYRQAPGKERELVAAISARGGSTSYADSVKGRFTISRDTAKNTVYLQMNSLKPEDTAVYYCSAKSAFPLDYWGQGTQVTVSS | high polyreactivity
15 | QVQLVESGGGLVQAGGSLRLSCAASGFIFLLNAMGWYRQAPGKERELVAAISWGGGSTYYADSVKGRFTISRDNAKNTVYLQMNSLKPEDTAVYYCAAKPGKTPLTGHRGPYDTGYGYWGQGTQVTVSS | low polyreactivity
16 | QVQLVESGGGLVQAGGSLRLSCAASGFTFNGKSMGLYRQAPGKERELVAAISYSGGSTYYADSVKGRFTISRDYAKNTVYLQMNSLKPEDTSVYYCAADRTAYSVRGYTKVHSGHDYWGQGTQVSVSS | low polyreactivity
17 | QVQLVESGGGLVQAGGSLRLSCGAYGRTFRLYAMGWYRQAPAKERELVAAITRGGRTTYADSVKGRFTSSRDNAQNTVYLQMNSLKPEDTAVYYCAARYVERQTDYYYWGQGTQVTVSS | low polyreactivity
18 | QVQRVESRGGLVKSGGSLRLSSASSGSTFRWYAMGWYRQAPGKERELVARINTRGGGTYYADSVKGRFTISRDNAKNTVYLQMNSLKPEDTAVYYCAAYSSWSGGLGGDYYWGQGTQVTVSS | low polyreactivity
19 | QVQLVESGGGLVQAGGSLRLSCAASGSTFQPYTMGWYRQAPGKERELVAAISSSGRTNYADSVKGRFTISRDNAKNTVYLQMNSLKPEDTAVYYCNRDYPYIWHKGARYWHENDYWGQGTQVTVSS | low polyreactivity
20 | QGQLVESGGGLVQAGGSLRLSCAASGRIFYRTAMGWSSQAPGQERELVAVISGSGGRTYYADSVKGRFTIARDNAKNTVYLQMNSLKPEDTAVYYCARRAAYYSYLYSHYPWSYYYWGPGTQVTVSS | high polyreactivity

Row | Sequence | polyreactivity (PSR sort gate)
21 | QVQLVESGGGLVQAGGSLRLSCAASGITFEYYAMGWYRQAPGKERELVAAITWSGGITYYADSVKGRFTISRDNAKNTVYLQMNSLKPEDTAVYYCNVYVSAGEEDEYWGQGTQVTVSS | low polyreactivity
22 | QVQLVESGGGLVQAGGSLRLSCAASGLIFNKYAMGWYRQAPGKERELVATIRRDGSTNYADSVKGRFTISRDNAKITVYLQLNILKPEDTAVYYCAADSYYTRDDYWGQGTQVTVSS | high polyreactivity
23 | QVQLVESGGGLVQAGGSLRLSCAASGSTIRLYAMGWYRQAPGKERELVAAISVSGGSTHYADSVKGRFTISRDNAKNTVYLQMNSLKPEDTAVYYCNAAGNPVSRYHYDYWGQGTQVTVSS | high polyreactivity
24 | QVQLVESGGGLVQAGGSLRISCASSGRIFTFYAMGWYRPAPGKERELVAAISSGGSTYYADSVKGRFTISRDNAKNTFYLQMNSLKPEDTAVYYCAAEPVWYADYDYWGQGTQVTVSS | low polyreactivity
25 | QVQLVESGGGLVQAGGSLRLSCAASGRIFAQYAMGWYRQAPGKERELVADISSGVRTYADSVKGRFTISRDNAKNTVYLQMNSLKPEDTAVYYCNAYYIIFTRNDYWGQGTQVTVSS | low polyreactivity
26 | QVQLVESGGGLVQAGGSLRLSCAASGNIFKGYAMGWYRQAPGKERELVAAISKSGGSTYYADSVKGRFTISRDNAKNTVYLQMNSLKPDDTAVYYCNTYTYAGYNYWGQGTQVTVSS | high polyreactivity
27 | QVQLIESGGGLVQAGGSLRLSCAASGSIFAANAMGWYRQAPGKEREFVASISYTGASTYADSVKGRFTISRDNAKNTVYLQMKSLKPEDTAVYYCAKDGYWTGLDPYYYWGQGTQVTVSS | low polyreactivity
28 | QVQLVESGGGLVQAGGSLRLSCAASGITLKRYAMGWYRQAPGTERELVAAITTSGGSTYYADSVKGRFTISRDTAKNTVYLQMNSLKPEDTAVYYCNAEDYWGKYYYWGQGTQVTVSS | low polyreactivity
29 | QVQLVESGGGLVQAGGSLRLSCAASGSIFSANVMVWYRQAPGKEWELVAASRRGGTTYYADSVKGRFTISRDNAKNTVYLQMNSLKPEDTAVYYCATDGNFGSYLRFAVAYDYWGQGTQVTVSS | low polyreactivity
30 | QVQLVESGGGLVQAGGRLRLSCAASGITCYRYVMGWYRQAPGKERELVAAITSRGGSTSYADSVKGRFTISRDNAQNTVYLQMNSLKPEDTAVYYCAAVYRRDYDYWGQGTQVTVSS | high polyreactivity
31 | QVQLVESGGRLVQAGGSLRLSCAASGSTFARNAMGWYRQAPGKERELVAAISSSGGRTYYADSVKGRFTISRDNAKNTVYLQMNSLKPEDTAVYYCAAAFSLGMYWGQGTQVTVSS | high polyreactivity
32 | QGQLVESGGGLVQAGVSLRLTCAASGSTFLTNSMGWYRQAPGKEREFVAAISRTGGSTYYADSVKGRFTISRDNAKNTVYLQMNSLKPEDTAVYYCAVYPYGRWLNYWGQGTQVTVSS | high polyreactivity
33 | QVQHVESGGGLVQAGGRLRLRCAASGSIFGTYAMGWYRQAPGKERELVARISGGGSTYYADSVKGRFTISRDNAKNTVYLQMNSLKPEDTAVYYCNVRKWAYWSHAIIYNYWGQGTQVTVSS | high polyreactivity
34 | QVQLVESGGGLVQAGGSLRLSCAASGRTFVYYAMGWYRQAPGKERELVAAITWSGGRTYYADSVKGRFTISRDNAKNTVYLQMNSLKPEDTAVYYCNRDQWPWESGYAYNYWGQGTQVTVSS | low polyreactivity
35 | QVQLVESGGGLVQAGGSLRLSCAASGSIFNIYAMGWYRQAPGKERELVATITGIADSTYYADSVKGRFTISRDNAKNTVYLQMNSLKPEDTAVYFCAAKYGSRYTTGQTRRDYYSWGQGTQVTVSS | low polyreactivity
36 | QVQLVESGGGLVQAGGSLRLSCAASGSIFYYYSMGWYRQAPGKERELVARITSGGTNYADSVKGRFTISRDNAKNTVYLQMNSLKPEDTAVYYCNADHSTWLYKRYDYWGQGTQVTVSS | low polyreactivity
37 | QVQLVESGGGLVQAGGSLRLSCAASGSTIPSYAMGWYRQATGKERELVASITYSDGTTRYADSVKGRFTISRDYAKNTVYFQMYSLKPEDTAVYYCNAVYYREGMDYWGQGTQVSVSS | low polyreactivity
38 | QVQLVESGGGLVQAGGSLRLTCAASGSTFGWYAMGWYRQAPGKGRGVVAAITGDSASTYYADSVKGRFTISRDNAKNTVYLQTNSLKPEDTAVYYCAATKFSAFGSPPLIGYGYWGQGTQVTVSS | low polyreactivity
39 | QVQLVESGGGLVQAGGSLRLSCAASGRIFQYNAMGWYRQAPGKERELVAAIRRGGGSTYYADSVKGRFTISRDNAKNTVYLQMNSLKPEDTAVYYCAADASSQIWYYPRDDYWGQGTQVTVSS | low polyreactivity
40 | QFQLVESGGGLVQAGGSLRLTCAASGSIFLWYAMGWYRQAPGKERELVAVITSSGGTTYYADSVKGRFTISRDNAKNTVYLQMNCLKPADTAVYYCAADFYRHPPGSLTKLYYYWGQGTQVTVSS | low polyreactivity
